One data set relates to KB tumor xenografts. The experiment in a line: Subcutaneous KB tumor xenograft efficacy study. The format is in vivo, SCID mice. Here is the method: Tumor cells were inoculated on day 0, and the first treatment was given on day 6. Immunoconjugate treatments continued daily for a total of 5 doses. PBS control animals were euthanized once tumor volumes exceeded 1500 mm^3. The conjugate was given at a dose of 150 or 225 μg/kg DM1, corresponding to antibody concentrations of 5.7 and 8.5 mg/kg respectively. The body weights (FIG. 25B) of the mice were monitored during the course of the study.
A subcutaneous model of the human cervical carcinoma cell-line, KB, was developed. KB cells were grown in vitro, collected, and 5×10^6 cells in a 100 μL of serum free medium were injected under the right shoulder of each mouse and allowed to grow for 6 days to an average tumor volume of 144±125 mm^3 at which time drug treatment was initiated. Mice were given either PBS, conjugate at 150 μg/kg DM1, or conjugate at 225 μg/kg DM1 (2 mice per group) intravenously every day for 5 days. Toxic responses were monitored daily during the treatment. Tumor volumes (FIG. 25A) and corresponding body weights (FIG. 25B) were monitored throughout the study.

The next data set relates to HPAC tumor xenografts. Kind of data set: Subcutaneous HPAC xenograft efficacy study. The format is in vivo, SCID mice. Here is the method: OVCAR5 (FIG. 26A and FIG. 26B), TOV-21 G (FIG. 26C and FIG. 26D), HPAC (FIG. 26E and FIG. 26F), and HeLa (FIG. 26G and FIG. 26H) cells were inoculated on day 0, and immunoconjugate treatments were given on day 6 and 13. PBS control animals were euthanized once tumor volumes exceeded 1000 mm^3. The conjugate was given at a dose of 600 μg/kg DM1, corresponding to an antibody concentration 27.7 mg/kg. Tumor volume (FIG. 26A, FIG. 26C, FIG. 26E, and FIG. 26G) and body weight (FIG. 26B, FIG. 26D, FIG. 26F, and FIG. 26H) of the mice were monitored during the course of the study.
muDS6-DM 1 activity was further tested on a panel of subcutaneous xenograft models (see FIG. 26). […] OVCAR5 cells and TOV-21 G are ovarian tumor cell lines; HPAC is a pancreatic tumor cell line; HeLa is a cervical tumor cell line. OVCAR5 and TOV-21G cells have low surface CA6 expression; HeLa cells have an intermediate level of surface CA6 expression; HPAC cells have a high CA6 density of surface expression. TOV-21G and HPAC cells are maytansine sensitive; OVCAR5 and HeLa cells are 2-7-fold less maytansine sensitive.
The 4 cell-lines were grown in vitro, collected, and 1×10^7 cells in a 100 μL of serum free medium were injected under the right shoulder of each mouse (6 mice per model) and allowed to grow for 6 days to an average tumor volume of 57.6±6.7 and 90.2±13.4 mm^3 for the test and control groups respectively of OVCAR5, 147.1±29.6 and 176.2±18.9 mm^3 for the test and control groups respectively of HPAC, 194.3±37.2 and 201.7±71.7 mm^3 for the test and control groups respectively of HeLa, and 96.6±22.8 and 155.6±13.4 mm^3 for the test and control groups respectively of TOV-21G, at which time drug treatment was initiated. For each model three control mice were treated with two weekly doses of PBS and three test mice were treated with two weekly doses of conjugate (600 μg/kg DM1) intravenously. Toxic responses were monitored daily during the treatment and tumor volumes and body weights were monitored throughout the study. […]

For another data set, the system named is Caov-3 cells. The experiment in a line: Indirect cell viability assay with anti-mouse IgG (H+L) DM1 conjugate. The format is cell-based, human. The conditions noted are these: without secondary conjugate.
Setting [1] is: 150 μg/kg DM1 i.v. daily for 5 days.
Setting [2] is: 600 μg/kg DM1, two weekly doses.

B1: DS6-DM1: muDS6 antibody modified with SPP and conjugated to the maytansinoid DM1 (conjugate)
VH: QAYLQQSGAELVRSGASVKMSCKASGYTFTSYNMHWVKQTPGQGLEWIGYIYPGNGATNYNQKFKGKATLTADPSSSTAYMQISSLTSEDSAVYFCARGDSVPFAYWGQGTLVTVSA
VL: QIVLTQSPAIMSASPGEKVTITCSAHSSVSFMHWFQQKPGTSPKLWIYSTSSLASGVPARFGGSGSGTSYSLTISRMEAEDAATYYCQQRSSFPLTFGAGTKLELKR
In the case of B1, in the data set on KB tumor xenografts (150 μg/kg DM1), the body weight entry is reported as “no weight loss”. In the data set on KB tumor xenografts (setting [1]), the “time to complete tumor regression after treatment initiation” value is given as 18 days and the tumor delay entry was “approximately 70 days”. For the same molecule, the treatment outcome with KB tumor xenografts (225 μg/kg DM1, no tumor recurrence at day 120) is listed as “cures”. In addition, in the data set with KB tumor xenografts (225 μg/kg DM1 i.v. daily for 5 days), the “time to complete tumor regression after treatment initiation” value came to 14 days. In the data set on KB tumor xenografts (during the 5-day treatment course, 150 and 225 μg/kg DM1), the “visible signs of toxicity” value is listed as “no visible signs of toxicity”. Also, in the data set with HPAC tumor xenografts (setting [2]), the body weight entry was “no weight loss was observed” and the “tumor status at day 61” value is “tumor-free”. Further, the tumor regression entry in the data set on HPAC tumor xenografts (600 μg/kg DM1 i.v., two weekly doses) is “complete tumor regression in all mice”.

B2: DS6: murine anti-CA6 monoclonal antibody DS6 (ATCC deposit number PTA-4449) (antibody, V domains shown)
VH: QAYLQQSGAELVRSGASVKMSCKASGYTFTSYNMHWVKQTPGQGLEWIGYIYPGNGATNYNQKFKGKATLTADPSSSTAYMQISSLTSEDSAVYFCARGDSVPFAYWGQGTLVTVSA
VL: QIVLTQSPAIMSASPGEKVTITCSAHSSVSFMHWFQQKPGTSPKLWIYSTSSLASGVPARFGGSGSGTSYSLTISRMEAEDAATYYCQQRSSFPLTFGAGTKLELKR
On to B2, for which the “activity of naked antibody in cell cultures” value in the data set on Caov-3 cells is given as “no proliferative or growth inhibitive activity”.

For the origin of these results see US8987424B2, “CA6 antigen-specific cytotoxic conjugate and methods of using the same” (ImmunoGen, Inc., priority 2003, dated 2015).
